The results in this text go back to US20090304717A1.

One may read the EC50 as the midpoint of the concentration-response curve. A lower EC50 goes with greater potency. For orientation: Kd means the concentration at which binding is half-saturated. Low readings indicate a tighter complex, high ones a looser complex.

Data set [1] deals with PSMA (prostate-specific membrane antigen) (UniProt Q04609). Description: cell_activity. The settings on record: cytotoxicity on LNCaP, no effect on PSMA-negative MCF-7.
UniProt Q04609, sequence (Q04609 whole entry): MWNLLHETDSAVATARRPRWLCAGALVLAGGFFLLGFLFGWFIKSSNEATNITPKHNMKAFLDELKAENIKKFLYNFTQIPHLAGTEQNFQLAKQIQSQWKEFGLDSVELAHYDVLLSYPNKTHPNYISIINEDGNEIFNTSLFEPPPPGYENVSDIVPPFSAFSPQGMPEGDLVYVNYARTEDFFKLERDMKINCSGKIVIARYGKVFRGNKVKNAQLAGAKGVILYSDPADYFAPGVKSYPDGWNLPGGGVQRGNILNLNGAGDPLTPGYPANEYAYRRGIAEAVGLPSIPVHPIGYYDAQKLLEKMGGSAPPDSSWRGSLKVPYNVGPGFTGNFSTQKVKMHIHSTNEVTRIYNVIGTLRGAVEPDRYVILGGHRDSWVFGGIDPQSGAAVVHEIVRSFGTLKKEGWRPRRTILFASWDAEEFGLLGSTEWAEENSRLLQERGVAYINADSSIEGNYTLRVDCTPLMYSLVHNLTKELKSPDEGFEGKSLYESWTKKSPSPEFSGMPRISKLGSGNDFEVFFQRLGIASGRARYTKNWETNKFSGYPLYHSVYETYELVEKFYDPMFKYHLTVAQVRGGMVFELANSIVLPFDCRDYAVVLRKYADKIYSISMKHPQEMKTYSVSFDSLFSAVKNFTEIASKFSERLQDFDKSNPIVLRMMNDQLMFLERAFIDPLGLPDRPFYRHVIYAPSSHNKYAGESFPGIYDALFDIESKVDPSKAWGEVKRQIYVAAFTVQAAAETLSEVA
Data set [2] shares this target. Description: flow. The following applies: LNCaP cells, on ice, sigmoidal fit.
The mark [3] stands for this setting: 2'-F pyrimidines (library chemistry).

Regarding “GGGAGGACGAUGCGGAUCAGCCAUGUUUACGUCACUCCUUGUCAAUCCUCAUCGGCAGCGCCAUCAUGGACAAGAAUUGAAGCUUCUUCUUGUCCAUGAUGGCGCGG [xPSM-A-3-siEEF2]”, the EC50 in data set [1] (setting [3]) amounted to 1510 nM. Besides, the Kd in data set [2] (setting [3]) was found to be 26.7 nM. Turning to “GGGAGGACGAUGCGGAUCAGCCAUGUUUACGUCACUCCUUGUCAAUCCUCAUCGGCUAAAAUUAGGCCUAUCUGCCCGUCAAUUAAAAAUUGGGAGGACGAUGCGGAUCAGCCAUGUUUACGUCACUCCUUGUCAAUCCUCAUCGGCAGCGCCAUCAUGGACAAGAAUUGAAGCUUCUUCUUGUCCAUGAUGGCGCGGAAAAAAAUUGACGGGCAGAUAGGCCUUUGAGCUCGAAUU [PSMB2-siEEF2]”, the EC50 in data set [1] (transcribed with Durascribe T7 kit (kit implies 2'-F pyrimidines), +/-0.01282) was 212 nM.

In turn, “GGGAGGACGAUGCGGAUCAGCCAUGUUUACGUCACUCCUUGUCAAUCCUCAUCGGCUAAAAAUUGCGCCAUCAUGGACAAGAAUUAAUUAAGGGAGGACGAUGCGGAUCAGCCAUGUUUACGUCACUCCUUGUCAAUCCUCAUCGGCAAAAAUUCUUGUCCAUGAUGGCGCGGGAGCUCGAAUU [PSMB1-siEEF2]” had an EC50 in data set [1] (transcribed with Durascribe T7 kit (kit implies 2'-F pyrimidines), +/-0.1246) of 517 nM. In data set [2] (transcribed with Durascribe T7 kit (kit implies 2'-F pyrimidines)), “GGGAGGACGAUGCGGAUCAGCCAUGUUUACGUCACUCCUUGUCAAUCCUCAUCGGCUAAAAAUUGCGCCAUCAUGGACAAGAAUU / GGGAGGACGAUGCGGAUCAGCCAUGUUUACGUCACUCCUUGUCAAUCCUCAUCGGCAAAAAUUCUUGUCCAUGAUGGCGCGG [PSMA biv anneal siEEF2 (1+2 annealed)]” showed a Kd of 46.5 nM.
